Test [1] deals with T1, human CASKIN2 SH3 domain (aa. 284-348), wild type (human, UniProt Q8WXE0 284-348).
T1 construct: CASKIN2, human, SH3 domain, residues 284-348, UniProt Q8WXE0; Cloned into BamHI/XhoI of pGEX4T2; Isotopically labelled (15N and/or 13C) for NMR; also called wild type CASKIN2 SH3 domain; WT
Briefly: other fluorescence titration; peptide titrated into 1 μM SH3 domain; 10 mM Tris-HCl, pH 7.5, 150 mM NaCl, 0.05 % sodium azide; intrinsic tryptophan fluorescence, excitation 280 nm, emission 340 nm; fitted to a 1:1 protein to peptide complex. As to conditions: both partners purified.

The target in test [2] is T2, CASKIN2 SH3 domain SH3-6x mutant (K290Y, H296E, A300E, R319W, Y336L, I341F) (human, UniProt Q8WXE0 284-348, K290Y | H296E | A300E | R319W | Y336L | I341F).
T2 construct: Made by Quikchange from the wild type construct; PDB 2KE9 is the wild type parent; also called 6x CASKIN-SH3 domain mutant
T2 sequence (Q8WXE0 284-348 K290Y/H296E/A300E/R319W/Y336L/I341F): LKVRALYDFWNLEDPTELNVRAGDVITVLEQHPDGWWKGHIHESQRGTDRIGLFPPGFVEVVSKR
Described as above. Conditions: both partners purified.

These results are taken from paper PMC5020537, “A lack of peptide binding and decreased thermostability suggests that the CASKIN2 scaffolding protein SH3 domain may be vestigial” (BMC Structural Biology, 2016).

Where “and” joins values, the source holds several entries; their conditions need not be identical. Identical values can stand only once.

T1 sequence (Q8WXE0 284-348): as the sequence (Q8WXE0 284-348 K290Y/H296E/A300E/R319W/Y336L/I341F) above, with Y7K, E13H, E17A, W36R, L53Y, F58I counted along it

B1: UBPY peptide YTPMVRENKPP (peptide)
peptide: YTPMVRENKPP
notes: peptide derived from the protein UBPY, corresponding to the UBPY ligand in the STAM2 SH3 domain structure PDB 1UJ0; contains an RxxKP motif; also called Class-III UBPY peptide; STAM2 ligand; source: synthetic peptide (Canpeptide, Montreal; > 90 % purity)
For the molecule B1, the Kd (in general, the equilibrium constant for the complex coming apart) in test [1] is 39000 ± 6000 nM; in test [2], 460 nM and 220 nM.
